Consider one protein from US20030021774.

The target of data set [1] is T1, Soybean Kunitz Trypsin Inhibitor, P01070.
T1 chain: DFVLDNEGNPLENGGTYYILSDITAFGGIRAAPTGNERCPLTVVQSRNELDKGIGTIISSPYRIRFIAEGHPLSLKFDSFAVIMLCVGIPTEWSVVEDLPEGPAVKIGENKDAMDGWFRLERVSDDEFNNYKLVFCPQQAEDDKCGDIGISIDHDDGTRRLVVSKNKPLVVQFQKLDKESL

Data set [2] addresses soybean agglutinin (SBA), P05046.
For data set [3], the target named is T2, soybean Bowman-Birk Inhibitor, P01055.
T2 chain: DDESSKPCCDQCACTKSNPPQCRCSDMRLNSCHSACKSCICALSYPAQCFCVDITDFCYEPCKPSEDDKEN

Chain of soybean agglutinin (SBA), P05046 (P05046 33-285): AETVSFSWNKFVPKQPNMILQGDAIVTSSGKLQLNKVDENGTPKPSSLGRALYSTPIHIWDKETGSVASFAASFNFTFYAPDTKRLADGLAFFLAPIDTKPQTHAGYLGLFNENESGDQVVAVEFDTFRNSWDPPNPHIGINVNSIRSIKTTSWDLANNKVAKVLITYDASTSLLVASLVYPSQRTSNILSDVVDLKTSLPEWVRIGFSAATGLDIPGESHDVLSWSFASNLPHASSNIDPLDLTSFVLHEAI

B1: protease derived from Bacillus sp. NCIMB 40484 (protein)
chain: MKFKKIAALSLATSLALFPAFGGSSLAKEAPKPFQPINKTLDKGAFESGEVIVKFKDGVSKKAQGSALNKAEANEQKASAKDPFQVLEVADVDQAVKALENNPNVEYAEPNYTFQATWSPNDPYYSAYQYGPQNTSTPAAWDVTRGSSTQTVAVLDSGVDYNHPDLARKVIKGYDFIDRDNNPMDLNGHGTHVAGTVAADTNNGIGVAGMAPDTKILAVRVLDANGSGSLDSIASGIRYAADQGAKVLNLSLGCECNSTTLKSAVDYAWNKGAVVVAAAGNDNVSRTFQPASYPNAIAVGAIDSNDRKASFSNYGTWVDVTAPGVNIASTVPNNGYSYMSGTSMASPHVAGLAALLASQGKNNVQIRQAIEQTADKISGTGTNFKYGKINSNKAVRY
Regarding B1, the figures for the % of anti-nutritional factor degraded (SDS-PAGE band scanning) in data set [1], in data set [2] and in data set [3] were 100%, 21% and 41%, respectively.
